{"source": "paper PMC6534634", "about": "“Understanding xylose isomerase from Burkholderia cenocepacia: insights into structure and functionality for ethanol production” (AMB Express, 2019)", "molecules": {"B1": {"name": "Xylose isomerase from Burkholderia cenocepacia (His6-XylA fusion protein) (enzyme, Burkholderia cenocepacia J2315, UniProt B4ENA5 1-440, looked up)", "chain": "MSYFEHIPAIRYEGPQSDNPLAYHHYDPDKRVLGKTLAEHLRIAVCYWHTFVWPGHDIFGQAAFRRPWQQPGDALERARMKADAAFEFFTKLGTPFYTFHDTDVAPEGDSLREYAANFARMVDYLGERQQASGVRLLWGTANLFSHPRFAAGAATNPNPDVFAWAATQVCHALDATHRLGGENYVLWGGREGYETLLNTDLKRERDQFARFLSMVVEHKHRIGFKGALLIEPKPQEPTKHQYDYDVATVHGFLVQYGLQNEIRVNIEANHATLAGHSFHHEIANAFALGVFGSVDANRGDPQNGWDTDQFPNSVEELTLAFYEILRHGGFTTGGMNFDAKVRRQSIDPEDLFYGHVGAIDVLALALERAAVLVENDRLDALRRQRYAQWDDAFGRKILAGGYTLESLAADALARGVDPQHASGAQERLENIVNQAIYGLR", "notes": "Xylose isomerase XylA of Burkholderia cenocepacia J2315, full-length gene made as synthetic DNA, cloned HindIII/BglII into pTrcHis-B; The fusion has a printed theoretical mass of 53,598.67 Da; also called XylABc; XI; source: E. coli TOP10, purified (Ni2+ resin, Superdex 200)"}}, "key": {"[1]": {"molecular_target": "T1, XylABc (XylA, xylose isomerase from Burkholderia cenocepacia) (Burkholderia cenocepacia, UniProt B4ENA5)", "T1 construct": "full-length, synthetic gene in pTrcHis-B, His6 fusion (tag apparently kept), E. coli TOP10, Ni resin + Superdex 200; homotetramer ca. 208 kDa", "T1 sequence (B4ENA5 1-440)": "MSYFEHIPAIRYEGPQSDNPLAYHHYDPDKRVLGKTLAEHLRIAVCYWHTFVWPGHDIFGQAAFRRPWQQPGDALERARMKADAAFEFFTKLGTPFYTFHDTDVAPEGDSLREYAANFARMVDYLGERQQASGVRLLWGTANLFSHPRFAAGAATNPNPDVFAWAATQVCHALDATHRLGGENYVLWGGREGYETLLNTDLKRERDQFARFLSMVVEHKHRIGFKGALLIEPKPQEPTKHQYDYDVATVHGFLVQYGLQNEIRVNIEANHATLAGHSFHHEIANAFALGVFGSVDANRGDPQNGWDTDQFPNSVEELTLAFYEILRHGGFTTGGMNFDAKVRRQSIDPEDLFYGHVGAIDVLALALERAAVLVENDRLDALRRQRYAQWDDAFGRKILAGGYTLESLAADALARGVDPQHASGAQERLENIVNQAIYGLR", "test": "sorbitol dehydrogenase-coupled NADH oxidation, […] nm", "format": "biochemical"}, "[2]": {"molecular_target": "the molecule itself", "test": "native gel or EMSA; non-denaturing 4-20% gradient PAGE of the pooled Superdex 200 peak of His6-XylA, SDS-free sample and running buffers, standards 10-250 kDa; band identified by LC-MS/MS; tetramer"}, "[3]": {"molecular_target": "the molecule itself", "test": "SDS-PAGE (SDS-resistant oligomer); SDS-PAGE (5% stacking, 12% resolving) after size exclusion; loading dye with 8 M urea, 4% SDS, 100 mM beta-mercaptoethanol; bands identified by LC-MS/MS; dimer beside monomer"}}}
{"molecule": "OC[C@@H](O)[C@H](O)[C@@H](O)CO", "note": "[xylitol]", "values": [{"measurement": "IC50", "setting": "[1]", "result": 3.75, "unit": "mM"}]}
{"molecule": "B1", "values": [{"measurement": "stoichiometry N", "setting": "[2]", "result": 4}, {"measurement": "stoichiometry N", "setting": "[3]", "result": 2}]}
